Experimental data taken from the supplement of paper PMC10126150.
± gives the standard deviation of the averaged measurements.

Test system: ATP
Test: switch fluorescence ratio, 500 uM ATP over buffer (Cy3 cluster intensity, sum of 5 cycles each) (fold (ratio)); higher = stronger signal-on switching upon ATP binding; sequences stand for … in TCGTCGGCAGCGTCAGATGTGTATAAGAGACAGTTTTTTTTTTTTTTTTTTTTTTTTT…TC
Details: aptamer strand: ATP DNA aptamer (quencher-CACCTGGGGGAGTATTGCGGAGGAAGG + anchor), 100 nM annealed; ATP concentration: 500 uM
Method in brief: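 Cy3-labelled switching-strand clusters on a modified Illumina MiSeq flow-cell were annealed to 100 nM quencher-labelled ATP aptamer, imaged in selection buffer, then imaged after 15 min with 500 uM ATP at 22 °C. Five buffer/ATP cycles ran, with NaOH stripping and re-annealing between them. The fluorescence ratio is summed target-cycle over summed buffer-cycle Cy3 intensity per cluster, averaged per switch-domain sequence. Clusters outside 100-1000 RFU were excluded.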
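Note: ATP exposure 15 min at 22 °C before imaging.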

Sequence | switch fluorescence ratio
AGGAAGTTGC | 0.9883 ± 0.0085
CCACAGAAAA | 1.033 ± 0.006
ATGTGTCTTT | 0.979 ± 0.03
GACAATGGTG | 1.021 ± 0.0049
TATCGGTCGG | 0.98 ± 0.021
AAAGGTCAGG | 1 ± 0.028
ATAAGAGACT | 1.01 ± 0.03
AATGGTGTGG | 0.995 ± 0.014
ATAGTTCTGG | 0.992 ± 0.018
GTTTTAGGCG | 0.986 ± 0.028
TGGGTAAAGG | 0.956 ± 0.015
CACTAGAGGA | 1.022 ± 0.0057
TTAAAAATAT | 1.02 ± 0.053
GTCAATAAGG | 0.99 ± 0.016
AATTTTACGG | 1.07 ± 0.024
CAGTTTTACA | 1.05 ± 0.016
ACGTAACATA | 1.22 ± 0.017
AAGTCCGGGA | 0.998 ± 0.035
AAGGACTGAA | 0.9994 ± 0.0078
TTACAAGAAA | 1.03 ± 0.041
GGTTGCGGGT | 0.9874 ± 0.0056
GGTGTAACAG | 0.991 ± 0.012
TTAAGTTTGG | 1.01 ± 0.027

Sequence | switch fluorescence ratio
GGGTACTGAT | 1.01 ± 0.024
TTTGGCTTTA | 0.977 ± 0.017
GGGCTTCCGT | 1.089 ± 0.0068
GGGTTTAGAC | 0.982 ± 0.032
GTTCTGTCGG | 1.002 ± 0.01
CGCATGATGT | 1.03 ± 0.018
TGTCGTTGGA | 0.998 ± 0.043
TGGTTGCCTG | 0.993 ± 0.056
GAGGTGAAAT | 1.01 ± 0.027
CGTGCTAGTA | 1.02 ± 0.058
TGGGTTATTG | 0.998 ± 0.019
CTATTGGGAT | 0.98078 ± 0.00046
ATGGCCTTAA | 0.982 ± 0.028
GTTTGATATA | 1.01 ± 0.011
TTAGAGGTTT | 0.971 ± 0.038
TTTGTTGTAA | 1.01 ± 0.034
TGAATTTATT | 1 ± 0.015
CGATTAAAAT | 0.986 ± 0.021
GACAGTCGGG | 1.01 ± 0.024
AGAATACGGA | 1.05 ± 0.018
TTAAGAAAAA | 1.01 ± 0.016
TTACATTTAT | 1.023 ± 0.0083
CGGGGGTTAG | 0.999 ± 0.033

Sequence | switch fluorescence ratio
AAACGTAACG | 1.07 ± 0.029
TGGTCGTACG | 0.937 ± 0.071
TGGGTAGATA | 0.985 ± 0.045
GGTAGTGCTG | 0.982 ± 0.042
TTTGGTACAC | 1.01 ± 0.021
ACGGTGACGT | 1.01 ± 0.028
CAACGGGGGA | 1 ± 0.032
TTTCCTTTGT | 1.01 ± 0.049
AGTATAGTAG | 0.983 ± 0.019
AATACAGAGG | 1.0069 ± 0.00059
TCACTAGAGT | 0.9722 ± 0.0053
ATATAGAATA | 1.03 ± 0.024
GCTGCTAAGG | 0.987 ± 0.056
CATGGTGGGA | 0.969 ± 0.017
TTTGACCAGG | 1.02 ± 0.045
CGGGATTGAG | 0.979 ± 0.0058
ATAGCGTATT | 0.998 ± 0.049
TTTGAAGAAA | 1.06 ± 0.033
AACTCGGATC | 1.01 ± 0.042
TCCAATATGG | 1.05 ± 0.094
GGATCTGGTG | 1.022 ± 0.0079
TTGGCCCGGC | 1.52 ± 0.72
CCATTGTAGT | 0.99 ± 0.013

Sequence | switch fluorescence ratio
TTTTTTGCAT | 1.07 ± 0.19
TTAAGTCCA | 0.995 ± 0.038
TTTAAGGCGT | 1.03 ± 0.016
CCGGCCGGGG | 1.01 ± 0.059
TTTGATGCAG | 0.993 ± 0.032
TGATGGGTTA | 0.962 ± 0.029
CTGGTTTTGC | 0.998 ± 0.022
TAAGGTACAT | 1.09 ± 0.012
AGAACGAAGG | 0.962 ± 0.015
GCTGTTAGAG | 1.02 ± 0.022
AGGAGCGCGG | 1.027 ± 0.003
GGGGGGAATT | 1.05 ± 0.1
ATCGAGTAAG | 1.02 ± 0.029
GGGTCAATAG | 1.42 ± 0.051
TTGAATGCAT | 0.969 ± 0.13
ATCTCTTTTA | 0.954 ± 0.0099
AGAATAGAGT | 0.97 ± 0.038
GGTCCGGAGC | 1.1577 ± 0.00066
GGGGAACAGT | 0.979 ± 0.043
TTTATTCTAT | 1.02 ± 0.011
TTTCCAATCT | 1.08 ± 0.13
TGGTTTACTA | 1.009 ± 0.0096
CGGGTATGAT | 1.031 ± 0.0092

Sequence | switch fluorescence ratio
TTTGATACTG | 1.06 ± 0.11
TAATTCGGTT | 1 ± 0.021
CGGATCGTCG | 0.984 ± 0.038
GAGGTTGGGG | 1.02 ± 0.059
TTGGGCAAAA | 0.985 ± 0.065
AGGTTCTGGG | 1.01 ± 0.03
TTTTTTGGAG | 1.01 ± 0.023
GGGTTGGGGA | 1.01 ± 0.025
ATAATTGTTT | 0.984 ± 0.042
AAGGAGGGGC | 1.06 ± 0.13
TGGGGTGCCG | 1.12 ± 0.039
TGCGGTGTCG | 1.06 ± 0.083
TTAATTCTAC | 1.039 ± 0.0063
CAGGCAGTTT | 1.01 ± 0.016
AGTGGTCCTT | 0.974 ± 0.047
GTTAGTGGGG | 0.992 ± 0.014
GAATTAGGTA | 0.962 ± 0.01
TTACTGGAG | 1.02 ± 0.06
AAGGGGGGTC | 0.991 ± 0.042
CTGTCAGACT | 1.03 ± 0.058
TTTAACTTTG | 1.011 ± 0.0084
ATGGGGGCGT | 0.994 ± 0.043
AGATTAGGAC | 0.97145 ± 0.00024

Sequence | switch fluorescence ratio
GGAATTTTTT | 0.9887 ± 0.0051
TTGTATTT | 0.979 ± 0.022
ATAGGGGCGC | 1 ± 0.047
ACTGAGACGA | 1.07 ± 0.044
AGGATCGGCG | 0.9769 ± 0.0046
GGAATTATTT | 1.017 ± 0.01
TTCATTGAGT | 1.028 ± 0.0048
GGATTATTTG | 0.97982 ± 7.7e-05
TCAATCATTT | 0.997 ± 0.053
CATACTAACG | 1.33 ± 0.062
TAATCGGCTG | 0.991 ± 0.069
GTGGGTTCCT | 1.013 ± 0.0021
GGGGGGAGTT | 0.999 ± 0.038
TTTTATAGTT | 1 ± 0.023
GGGTTTTATT | 0.981 ± 0.036
GCCGTTGCAT | 1.022 ± 0.0019
TAAGGTGTTG | 1.04 ± 0.024
GTATATCCGG | 0.975 ± 0.013
TCTTATAATT | 1.01 ± 0.011
TTGTTGGTGG | 0.9856 ± 0.0066
AAGGAGGGT | 0.9965 ± 0.0096
TTTTTGATGG | 1.02 ± 0.037
AAGGGACTCG | 1.04 ± 0.059

Sequence | switch fluorescence ratio
CGATTAAGGT | 1.02 ± 0.043
TTCCCTAATC | 1.02 ± 0.067
GACTACTGTA | 1.04 ± 0.051
CGATTGGTAC | 1.25 ± 0.023
AGTTAGGGTC | 1 ± 0.012
ACTTTGTATT | 0.999 ± 0.013
TGCCGCAGAG | 1.6 ± 0.16
ACTCGGGGTT | 0.998 ± 0.04
GCGGTAATTT | 1 ± 0.024
TTTCGGACAA | 1.46 ± 0.5
ACACAGTGCT | 1 ± 0.011
ACTCTGCCGG | 1.2 ± 0.048
GCGTGGAGGG | 1.013 ± 0.0029
GAGAGGAGGT | 1.022 ± 0.0029
ATTAAAAATG | 1.02 ± 0.042
TCGGGTAGTG | 1.01 ± 0.026
AAGGAGGTCA | 0.977 ± 0.021
TTCGCAGTCA | 1.03 ± 0.052
TCTAAAAAGG | 0.998 ± 0.025
